Experiment: soluble on expression in E. coli; label from the status in PepcDB or PDB records

Sequence | soluble on expression in E. coli
MSFLSIPINEKSLSFIKNNFQAQIQALEQFYPIIKNALNLGLNPSSIKFGGGTALSMYYFQHRLSFDMDLFVNDAQCLGFFSPKLWIDNCSHFDSTRYIDQHNHIGVTNKDNIKIDVLVDYASNEGYVDNSKKIFAFDIYIESLENIIAKKITFRKTDNKTRDIFDIAVALHNDNNLFDKLLSSQKITKQDLLTLQNSLQELDKKRYSIEIDMVEPISHYKDLSLSAYDFLIDKIDQIKTATYSNSHDNADDLDNSNEYTPTPKRRR | not soluble
SLIENSHVKKDDIWPSGGQMTVKDLTAKYTEGGNAILENISFSISPGQRVGLLGRTGSGKSTLLSAFLRLLNTEGEIQIDGVSWDSITLEQWRKAFGVIPQKVFIFSGTFRKNLDPNAAHSDQEIWKVADEVGLRSVIEQFPGKLDFVLVDGGCVLSHGHKQLMCLARSVLSKAKILLLDEPSAHLDPVTYQIIRRTLKQAFADCTVILCEARIEAMLECDQFLVIEENKVRQYDSIQKLLNERSLFRQAISPSDRVKLFPHRNSSKCKSKPQIERETLVTMENVTAFWEEGGTPVLKDINFKIERGQLLAVAGSTGAGKTSLLMMIMGELEPSEGKIKHSGRISFCSQNSWIMPGTIKENIIFGVSYDEYRYRSVIKACQLEEDISKFAEKDNIVLGEGGITLSGGQRARISLARAVYKDADLYLLDSPFGYLDVLTEKEIFESCVCKLMANKTRILVTSKMEHLKKADKILILHEGSSYFYGTFSELQNLRPDFSSKLMG | soluble
MSLAGSWETYTMKVPSEKNLPTTKVVLKMPKDVEFQQYEPIPGWKVSTQKHDDKSVSVTWEATDGGIQEGQFQQFTFVAKNPDKAEEAAWDAYQYYKDGSIVEWTGDEDADTPHSITNITSAKQVTDEHGATKTEDDSENSGSSALDITAMVLSAAAIILSVAALVKKKRAEGHHHHHH | soluble
MGHHHHHHSHMVLLHVKRGDESQFLLQAPGSTELEELTVQVARVYNGRLKVQRLCSEMEELAEHGIFLPPNMQGLTDDQIEELKLKDEWGEKCVPSGGAVFKKDDIGRRNGQETSGSRCLCYHGDGERCLGPASRRGDDCLPHGVATV | not soluble
MRDLFDEVAGKSPLDPNEAVRRTSRAQLPKRFYTEAGVAEENGGFAVRLDGRAVKTPSRNALAAPDRALAEAIAAEWQAQGETIDPSTMPLTRLANSVIDGVAGRVEAVTDDIAKYFGSDLLFYRAEHPEELIAREGAHWDPVLFWAKDALGAHFILAQGIVHVGQPETALAAARAALPADPWLLGALHVVTTITGSALLALALAHGRLEADQVWAAAHVDEDWNIEQWGLDEEAAARRAAKQAEFAAAAQVIAALGSRRSAAALEHHHHHH | not soluble
MKMKDELINLIINEGCIKFGHFVLTSGKESNYYIDIKSLITNPKALRIIAKLIKEKAEELNLNYDKIAGPELGAVPIATALSLETNKPLLIVRKKKKEHGTGKVIEGNVQKGDKVLLVEDVTTTGGSVIRAAKILREHGADVVGIFVVVDREEGAKENIEKEGFKFYPLVLVSELFKAAGISKDQS | soluble
MHIVIVGAGAVGGFFGGLLHESGTKVTFVARGKSLDALQRRGMRLHDASGVRDIRVPVVEDLSHVPDADVVILATKTLGSVDVPKNLPKSAVLVTTQNSVEMPHIAVEALGVDRVIPGVVRSFLTKRGPAEAEFSGGIFTFTFGCMSEATRGIVDKLAHVLDRAGIEPVVHPAIMTDIWFKAMFVTCFGALGALVNQPLGVVRTTYRDDFKALINEVVTAGQAHGVDFPEDVVDRVLAFADAQPKGATSSMQRDLANGLPSELDAQAGAVVRMAQRVGVDARLHHLVGNVLSHKHSD | soluble
MGSDKIHHHHHHMAKGLFDRYIWLIDTIYRAGKITFEEINKRWLRTEMSNGEEIPLRTFHNHRKAIETMFDINIECNKRAGYYYYIENADDIDKDKIKKWLLNTFAINNLANESHRLKQRILFEDIPSGKQYLSSIIEAMLENRIIEITYQSYWKEEANTFTIEPFCVKVFKQRWYIIARSPYYDTIMIYALDRIQNLQVTDITFNYPSDFDPQSYFEFSFGIVVDEICNIDKIRIKVYGKKCQYIKALPLHHSQSEVETTKSYSIFEYLLKPTYDFCQELLSHGDEIEVLSPTSLKEQIKEIVKNMSRYYN | not soluble
MRMNIRVALPQAQVHWCRGWLQAAHADALMQALLDQVQWEVHRIRMFGRVVDSPRLSSWIGDADASYRYSGTQFAPQPWLEALQPVRTRLQDETGSPFNSVLVNRYRSGADAMGWHSDDEPELGAQPVIASLSLGAARRFAFKHRHDAALKQTLELGHGDLLLMGGDTQRHYKHALPRTVKPVGERINLTFRQIAVRVSQRLEHHHHHH | not soluble
MESIFHEKQEGSLCAQHCLNNLLQGEYFSPVELSSIAHQLDEEERMRMAEGGVTSEDYRTFLQQPSGNMDDSGFFSIQVISNALKVWGLELILFNSPEYQRLRIDPINERSFICNYKEHWFTVRKLGKQWFNLNSLLTGPELISDTYLALFLAQLQQEGYSIFVVKGDLPDCEADQLLQMIR | soluble
MAYKHILIAVDLSPESKVLVEKAVSMARPYNAKISLIHVDVNYSDLYTGLIDVNLGDMQKRISEETHHALTELSTNAGYPITETLSGSGDLGQVLVDAIKKYDMDLVVCGHHQDFWSKLMSSARQLINTVHVDMLIVPLRDEEE | not soluble
MGFDESSQMIDPDGELSFFKQNENRTPVTSVPSTSKAVLPFNFDDDEDDEYFKTPKIAEKKKKLPEAMAPVSEDSFDFDIAVPQSIINRIPAKTTAQPAKKYPKIPNLSAKTSSKPTEAPKTENVLKIKSKSQEIAQKPQKSTRISSFFSRTTSSTSNLTEYKRGKSAKMKHISKMEQFFVEHERDIICVGECGLDHTISQFKLTTEDFEEQETVFKWQIDLAKHFEKPLILEIPDISRNVHSRSAARRTIEILLECHVAPDQVVLHAFDGTPGDLKLGLEAGYLFSIPPSFGKSEETTQLIESIPLSQLLLETDSPALGPEKGCKNVPANLRISAEIVAKIKKLEIDDIISATSTNANRIFKF | soluble
MDKILGIKFRDYGQVYYFLAGEAEVSLGDRVIVETDQGQGIGEVIAVRDDRPSDAGDEELQPILRVAEGEDLERAETNEAMGAEAAAYCRECIRARNLDMKLVDVEVFFDLSKLIFYFTAPSRIDFRELVKDLVKHYRTRIELRQIGVRHETQMIGAVGNCGMVCCCRRYLRKFAPVTIKMAKEQNLFLNPAKISGICGRLLCCLSYEQENYEEFHRSCPRLGKKYMTNRGPVKVLRANMFRNSLMAFTDTGEEIEISLDEWQQLDPRRPDQQPQQARPPRRDRPEGGSARDGNGDRAPAPSSDRAAGATGGEAARHGGGRAGERSDRGGRPDRAERADRRGMPHGDVPGSGETPPAGGEAEADAPSLHAAGVEFATEQPAPFDTSPDGGAVMGMEQVEALEHHHHHH | not soluble
MFNFEKFWQHFNDEMRARFNEVAYNAWFKNTKPISYNQKTHELKIQVQNPVAKGYWEKNLSSQLIQSAYGYAGVELLPVFQISEDSDTPERIVTPEPQHNLQTTPTRAPQREFAKDLKLNEKYTFDNFVQGEGNKLAAGAALAVADSPGSFYNPLFIFGGVGLGKTHLMQAIGHQMLVERPNAKVVYIQSETFVNDFINSIKNKTQDKFREKYRTCDLLLVDDIQFFAKKEGIQEEFFHTFETLYNDQKQIVMTSDRLPTEIPDLSERLVSRFTWGLQVEITPPDLETRIAILRRKAEAEGLTIDDDTLDYIASQVDTNIRELEGALVKVQAYATIEKADIDINLAREALVDLKLVQKNRGLQIPKIQEVVANYFQTSTAELKGKKRVRQIVIPRQIAMYLSRELTDASLPKIGQEFGGKDHTTVMHAYDKIDKQMKTDADIKTAVFDLKQMLEHLEHHHHHH | not soluble
MKLAVITDSTATLPTDLKQDKAIFSLDIPVIIDDETYFEGRNLSIDDFYQKMADSQNLPKTSQPSLSELDNLLGLLSSKGYTHVIGLFLAGGISGFWQNIQFLAEEHPEIEMAFPDSKITSAPLGSMVKNVLDWSRQGMTFQAILNKLQEQIDGTTAFIMVDDLNHLVKGGRLSNGSALLGNLLSIKPILRFDEEGKIVVYEKVRTEKKAMKRLVEILNDLIADGQYNVFIIHSKAQDKADYLKRLLQDSGYQYDIEEVHFGAVIATHLGEGAIAFGVTPRL | not soluble
GPGSMSLTTTARTPATVGKLSPSSGIFSIPDNISPVTAEEVPKSRDSLLTDMSLSELSRQSVLQSEPVVLRLCHVGKSYPIAGSDERVVALKDITLAESKHSNAATTKQGASTTNCLQRSNLPPPFAPVRRGEFVMIRGPSGGGKTTLLNIIGSIDSCTEGNIELNGRIIDKDTKESVLADIRLKNIGFVFQTFNLIATMTAAENVELPMTLLGTMSTKAMRLRSRQLLTLVGLRNRINHLPSELSGGEQQRVTIARSLANNPSILLLDEPTGDLDTANTIEVMDLLMRINRRTKTTCIMVTHNPDIECYADRILYVSDGRFAKEVFNALPMCLDLENYTEYLAAKERAITGFAGVGDVEDDSEPRATAAMAECIGTKGCEIEKPNSSPVLMEPLTEGQSACSIVSPAASRSAVVQPLCPPAAATAPSVNGVTQTVLDTTHHGSASVPPASASSALLQREEREVPNGL | soluble
MGHHHHHHSHMHKSNFETLQHYLESQIIGQHDLVKQLLIALLADGHILVEGPPGLAKTRAVKSLSDCVEGDFHRIQFTPDLLPADLTGTDIFRPETGEFTFQSGPIFNSLILADEINRAPAKVQAAMLEAMAEKQVTAGRHTYALPELFLVMATQNPIEQEGTYPLPEAQLDRFLLHLEVDYPDAEHELAILRINRGEAKGECSIERPSLSQQDIFTARQEVLDIHMAEAIEQYIVRLVMATRRASEYDSELDKWLAMGVSPRATIALDRCARAHAWLAGRDFVSPEDVQAMAYPVLRHRLLLSYHAQAEGVTSNQVIDKLLNLVGSA | soluble
MTLKGMSYVMCTGSFKLEKEVAETQHGTVLVQVKYEGTDAPCKIPFSTQDEKGATQNGRLITANPIVTDKEKPVNIEAEPPFGESYIVVGAGEKALKLSWFKKGSSIG | soluble
MNTSEHEREHDHVIEVTDLRRVYGGDFEAVRGITFSVERGELFALLGTNGAGKTSTVELLEGLAAPSGGRVRVLGHDPYEERAAVRPRTGVMLQEGGFPSELTVAETVRMWAGCTSGARPVGEALSLVGLERRPDVRVKQLSGGERRRLDLALALLGRPEVLFLDEPTTGLDAEGRQETWELVRELRDGGTTVLLTTHYLEEAEGLADRLAILHEGRIATAGTPAEVTAAQPSRISFDLPDGYFLGDLPPLADLGVSTHETTGRTVRLRTHELQRTATALLLWAQRAQVELRGLDVRSASLEEAFLRIAREAAGDRPGRPGRTDVSGTTASGKEAVALEHHHHHH | soluble
ELSYRLLDQIYINPAVILKREEQYIKDFQSYVTEQKLSMNDRKKIKEFTKTDWTIVMALYQENDIIFSSDSRFIVPLPADEYGETIKDTSEASGVFNVTFTDGAVQAALVYTGYENYQS | soluble
MASLSQTPPDLPLCRGDRVRMSPLGRERHPRYGTREGVIVGQGSPSSWRVKFDDRKTIQAIHQDYLERVPAQAARFDSSEIWNGWRNDPPATA | not soluble
MQRVVVAIDAKRVDGEFMVFTHSGKKNTGILLRDWVVEVEKRGAGEILLTSIDRDGTKSGYDTEMIRFVRPLTTLPIIASGGAGKMEHFLEAFLAGADKALAASVFHFREIDMRELKEYLKKHGGSGQAVVVAIDAKRVDGEFMVFTHSGKKNTGILLRDWVVEVEKRGAGEILLTSIDRDGTKSGYDTEMIRFVRPLTTLPIIASGGAGKMEHFLEAFLAGADAALAASVFHFREIDMRELKEYLKKHGVNVRLEGLLEHHHHHH | soluble
